Laboratory results reported in PMC9225624 (Autophagy, 2021).
Like-named read-outs stand apart in the source and are kept apart here.

Assays:
GST-ATG8f Y26E = molecular target: T1, GST-ATG8f Y26E (Arabidopsis thaliana, UniProt Q8VYK7 1-117, Y26E); assay: pull-down
T1 sequence (looked up): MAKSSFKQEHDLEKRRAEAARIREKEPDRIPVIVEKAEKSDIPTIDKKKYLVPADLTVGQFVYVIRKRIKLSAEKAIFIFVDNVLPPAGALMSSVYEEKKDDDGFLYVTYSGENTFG

GST-ATG8f R29E = molecular target: T2, GST-ATG8f R29E (Arabidopsis thaliana, UniProt Q8VYK7 1-117, R29E); assay: pull-down
T2 sequence (looked up): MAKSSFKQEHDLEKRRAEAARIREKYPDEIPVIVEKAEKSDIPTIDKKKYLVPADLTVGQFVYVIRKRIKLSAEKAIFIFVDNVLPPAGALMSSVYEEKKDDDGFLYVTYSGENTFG

GST-ATG8f K47E = molecular target: T3, GST-ATG8f K47E (Arabidopsis thaliana, UniProt Q8VYK7 1-117, K47E); assay: pull-down
T3 sequence (looked up): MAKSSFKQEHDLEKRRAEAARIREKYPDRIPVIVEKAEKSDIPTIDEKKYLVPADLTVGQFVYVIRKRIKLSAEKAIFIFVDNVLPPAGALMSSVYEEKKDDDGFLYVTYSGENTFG

[1] = molecular target: T4, Arabidopsis ATG8f (tag-free) (Arabidopsis thaliana, UniProt Q8VYK7 1-117); assay: SEC
T4 sequence: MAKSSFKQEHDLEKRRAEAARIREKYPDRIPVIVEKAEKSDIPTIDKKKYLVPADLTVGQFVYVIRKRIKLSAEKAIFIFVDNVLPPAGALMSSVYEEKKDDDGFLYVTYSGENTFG

GST-ATG8f (Y26E R29E) = molecular target: T5, GST-ATG8f (Y26E R29E) (Arabidopsis thaliana, UniProt Q8VYK7 1-117, Y26E | R29E); assay: pull-down
T5 sequence (looked up): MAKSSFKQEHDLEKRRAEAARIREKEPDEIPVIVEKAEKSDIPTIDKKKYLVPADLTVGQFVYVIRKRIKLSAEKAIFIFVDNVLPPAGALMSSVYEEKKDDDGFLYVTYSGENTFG

GST-ATG8g = molecular target: T6, GST-ATG8g (Arabidopsis thaliana, UniProt Q9LZZ9 1-117); assay: pull-down
T6 sequence (looked up): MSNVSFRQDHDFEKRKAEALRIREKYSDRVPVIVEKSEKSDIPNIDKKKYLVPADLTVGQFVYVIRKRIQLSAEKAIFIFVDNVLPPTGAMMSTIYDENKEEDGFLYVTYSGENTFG

GST-ATG8e = molecular target: T7, GST-ATG8e (Arabidopsis thaliana, UniProt Q8S926 1-118); assay: pull-down
T7 sequence (looked up): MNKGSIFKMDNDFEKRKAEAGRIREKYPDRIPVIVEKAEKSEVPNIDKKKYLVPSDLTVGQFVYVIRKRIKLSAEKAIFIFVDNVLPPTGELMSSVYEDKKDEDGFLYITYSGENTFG

GST-ATG8f [2] = molecular target: T8, GST-ATG8f (Arabidopsis thaliana, UniProt Q8VYK7 1-117); assay: pull-down
T8 sequence (looked up): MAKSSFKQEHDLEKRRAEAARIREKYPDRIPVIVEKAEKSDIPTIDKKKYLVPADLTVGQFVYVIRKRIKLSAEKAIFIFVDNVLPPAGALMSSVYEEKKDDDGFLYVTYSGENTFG

GST-ATG8d = molecular target: T9, GST-ATG8d (Arabidopsis thaliana, UniProt Q9SL04 1-120); assay: pull-down
T9 sequence (looked up): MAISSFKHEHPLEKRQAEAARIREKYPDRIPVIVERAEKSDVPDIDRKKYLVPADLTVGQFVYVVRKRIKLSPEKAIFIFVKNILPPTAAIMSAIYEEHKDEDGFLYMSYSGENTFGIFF

GST-ATG8c = molecular target: T10, GST-ATG8c (Arabidopsis thaliana, UniProt Q8S927 1-119); assay: pull-down
T10 sequence (looked up): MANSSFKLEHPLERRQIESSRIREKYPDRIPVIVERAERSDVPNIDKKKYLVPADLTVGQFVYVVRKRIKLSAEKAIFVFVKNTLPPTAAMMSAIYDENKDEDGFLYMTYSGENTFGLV

GST-ATG8a = molecular target: T11, GST-ATG8a (Arabidopsis thaliana, UniProt Q8LEM4 1-117); assay: pull-down
T11 sequence (looked up): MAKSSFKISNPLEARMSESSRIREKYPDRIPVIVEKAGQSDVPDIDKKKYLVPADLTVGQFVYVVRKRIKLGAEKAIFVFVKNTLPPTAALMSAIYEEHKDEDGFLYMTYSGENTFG

GST-ATG8h = molecular target: T12, GST-ATG8h (Arabidopsis thaliana, UniProt Q8S925 1-119); assay: pull-down
T12 sequence (looked up): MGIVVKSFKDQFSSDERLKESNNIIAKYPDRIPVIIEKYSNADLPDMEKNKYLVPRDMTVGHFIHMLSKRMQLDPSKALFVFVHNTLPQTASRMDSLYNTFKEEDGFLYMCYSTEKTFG

GST-ATG8b = molecular target: T13, GST-ATG8b (Arabidopsis thaliana, UniProt Q9XEB5 1-117); assay: pull-down
T13 sequence (looked up): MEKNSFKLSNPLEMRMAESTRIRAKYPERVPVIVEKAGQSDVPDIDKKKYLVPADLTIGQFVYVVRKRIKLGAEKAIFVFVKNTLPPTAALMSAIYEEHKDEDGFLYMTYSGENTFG

GST-ATG8i = molecular target: T14, GST-ATG8i (Arabidopsis thaliana, UniProt Q9LRP7 1-115); assay: pull-down
T14 sequence (looked up): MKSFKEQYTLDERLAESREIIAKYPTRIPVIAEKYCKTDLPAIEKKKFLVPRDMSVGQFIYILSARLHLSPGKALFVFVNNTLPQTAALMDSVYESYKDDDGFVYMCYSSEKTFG

[3] = molecular target: T4, Arabidopsis ATG8f (tag-free); assay: pull-down
GST-ATG8f [4] = molecular target: T8, GST-ATG8f; assay: pull-down; remark: listed apart in the source

Measured: binding result

B1: SH3 domain of SH3P2, SH3P2 (279-368) (domain or fragment, Arabidopsis thaliana, UniProt Q8VWF1 279-368, looked up)
chain: SYEEANGVFASQMHDTSTDSMGYFLGEVLFPYHGVTDVELSLSTGEYVVVRKVTGSGWAEGECKGKAGWFPYGYIERRERVLASKVSEVF
not listed: [3] | GST-ATG8f [4]
binds: all other assays above

GVSEWDPILEE [NBR1 AIM peptide (657-667 aa)]
binds: [3]

B2: UBA domain (619-704 aa) of NBR1 (domain or fragment, Arabidopsis thaliana, UniProt Q9SB64 619-704, looked up)
chain: EITMLKELEEMGFKEIDLNKEILRDNEYNLEQSVDALCGVSEWDPILEELQEMGFCDDVTNKRLLKKNNGSIKGVVMDLLTGEKEA
binds: [1] | GST-ATG8f [4]
